# Reference: patent publication US8624002B2, “Prostaglandin E2 binding proteins and uses thereof” (AbbVie, Inc., priority 2008, dated 2014)
# B1: 2B5-8.0: recombinant anti-PGE2 antibody from solved 2B5 sequence; VH SEQ ID NO 42, VL SEQ ID NO 43 (antibody, V domains shown)
# VH: QVQLQQSGPELVRPGSSVKISCKASGYTFTKYWLGWVKQRPGHGLEWIGDIYPGYDYTHYNEKFKDKATLTVDTSSSTAYMQLSSLTSEDSAIYYCARSDGSSTYWGQGTLVTVSA
# VL: DVLMTQTPLSLPVSLGDQASISCTSSQNIVHSNGNTYLEWYLQRPGQSPKLLIYKVSNRFSGVPDRFSGSGSGTVFTLKISRVEAEDLGVYYCFQVSHVPYTFGGGTKLEIKR
# Key:
# [1] = ^3H-PGE2 competition ELISA (prostaglandin selectivity); assay type: binding
# Experimental: Alternatively, prostaglandin selectivity was determined using a ^3H-PGE2 competition ELISA. Plates were coated with 50 μL/well of 5 μg/ml of goat anti-human IgG (Fc) (Thermo Scientific # 31170, Hudson, N.H.) or goat anti-mouse IgG (Fc) (Thermo Scientific # 31125, Hudson, N.H.) in PBS and incubated overnight at 4° C. The following day plates were flicked and blotted dry. Plates were blocked with 200 μL/well of Superblock (Thermo Scientific # 37515, Hudson, N.H.), 1 hour at room temperature. Plates were flicked and blotted dry. Monoclonal antibodies were diluted to 0.04 μg/ml in PBST (Abbott Bioresearch Center, Worcester, Mass.)/10% Superblock and 50 μL of each was added to each well (2 ng/well) of the pre-blocked ELISA plate and incubated for 1 hour at room temperature. Wells were washed 3 times with PBS/0.1% Tween-20. ^3H-PGE2 (Perkin Elmer # NET-428, Waltham, Mass.) was diluted in PBST/10% Superblock to 6 nM (2× stock). Each prostaglandin (Cayman Chemicals, Ann Arbor, Mich.) was prepared in PBST+10% Superblock at various concentrations ranging from 2000 μM (2× stock) to 0.00004 μM (2×). Equal volumes of the ^3H-PGE2 solution and of each prostaglandin dilution were mixed. Fifty microliters of this mixture was then added to each well of the plate and incubated for 1 hour at room temperature. Wells were washed manually 6 times with PBST/10% Superblock and 50 μL of scintillation fluid (Perkin Elmer # 6013621, Waltham, Mass.) added to each well. Plates were read using a TopCount reader (Perkin Elmer, Waltham, Mass.) with a 5 minute count delay. IC50 number was determined using GraphPad Prism 5 (GraphPad Software, La Jolla, Calif.). The cross reactivity index was then calculated by IC50 of PGE2/IC50 of other prostaglandin(s)
# [2] = Pharmacokinetics of 2B5.8.0 in Balb/C mice; assay type: in vivo
# Experimental: Pharmacokinetic studies with mouse mAb 2B5.8.0 were carried out in Sprague Dawley rats and Balb/C mice. Male and female rats and mice were dosed intravenously or intraperitoneally (mice only) with a single dose of 4 mg/kg 2B5.8.0 and serum samples were analyzed using antigen capture based chemiluminescent MSD (Meso Scale Discovery) method (Meso Scale Discovery, Gaithersburg, Md.). Pharmacokinetic parameters were calculated by non-compartmental analysis using WinNonlin.
# The following MSD assay was used to measure antibody concentration in rat and mouse serum. MSD streptavidin plates (Meso Scale Discovery, Gaithersburg, Md.) were washed with phosphate buffered saline containing 0.05% Tween-20 (Sigma, St. Louis, Mo.). Plates were blocked with 250 μL/well blocking solution (MSD Block, Meso Scale Discovery, diluted to 3% final concentration in PBS) for 1 hour, covered, with shaking (600 rpm) at room temperature. After washing, 70 μL of biotinylated PGE2 (Prostoglandin E2-biotinamide, Cayman Chemical, Ann Arbor, Mich., cat# 10006987, lot# 190831-191028, 0.01 ug/mL in assay buffer) was added to each well. The plates were covered and incubated with shaking (600 rpm) for 1 hour at room temperature
# Prior to analysis, rat and mouse serum samples were thawed on ice, mixed gently, and centrifuged at 14,000 rpm for 3 minutes at 4° C. in an eppendorf centrifuge. Standard curve and control samples were prepared in rat and mouse serum. A Tecan Evo automated liquid handling station was used to dilute standard curve, high, medium, and low controls, and serum samples in assay buffer, keeping 1% final serum concentration constant. MSD plates were washed again and study samples, standard curve samples and blanks, as well as high, medium, and low controls were added (70 μL/well). The plates were covered, and incubated for 1 hour with shaking (600 rpm) at room temperature.
# After incubation, the MSD plates were washed, and 70 μL of sulfo-tagged goat anti-mouse IgG (Meso Scale Discovery; diluted to 1 ug/mL in assay buffer) was added to each well. The MSD plates were covered, and incubated with shaking (600 rpm) for 1 hour at room temperature, then the plates were washed and developed with 2× Read Buffer (Meso Scale Discovery). Chemilumeniscence was measured within ten minutes on the MSD Sector Imager 6000.
# Standard curves were analyzed using four-parameter logistic fit and sample concentrations were calculated by XLfit4 software version 2.2.1 Build 16, ([…].). Pharmacokinetic parameters were calculated for each animal using Winonlin software version 5.0.1 (Pharsight Corporation, Mountain View, Calif.) by noncompartmental analysis.
# Male and female Balb/c mice (weighing approximately 0.025 kg) were purchased from Charles River Laboratories (Wilmington, Mass.). The animals were allowed food and water ad libitum. Blood samples were collected (0.2 mL from the rats via the tail vein and by cardiac puncture from the mice) at various timepoints (5 mice at each timepoint) allowed to clot for 30 minutes at room temperature, centrifuged for 3 minutes at 13,200 rpm, the serum transferred to eppendorf tubes and stored frozen at −80° C.
# [3] = mice, intraperitoneal, both sexes
molecule,measurement,setting,value
B1,"PG Selectivity in ^3H-PGE2 competition ELISA (CRI %) 2,3-dinor-6-keto-PGF1α","[1]; 2,3-dinor-6-keto-PGF1α",0.019%
same,PG Selectivity in ^3H-PGE2 competition ELISA (CRI %) 5(S)-HETE,[1]; 5(S)-HETE,<0.01%
same,PG Selectivity in ^3H-PGE2 competition ELISA (CRI %) 6-keto PGF1α,[1]; 6-keto PGF1α,0.64%
same,PG Selectivity in ^3H-PGE2 competition ELISA (CRI %) 8-iso PGF2α,[1]; 8-iso PGF2α,0.092%
same,"PG Selectivity in ^3H-PGE2 competition ELISA (CRI %) 13,14-dihydroxyl-15-keto PGE2","[1]; 13,14-dihydroxyl-15-keto PGE2",0.012%
same,PG Selectivity in ^3H-PGE2 competition ELISA (CRI %) 15-keto PGE2,[1]; 15-keto PGE2,0.013%
same,PG Selectivity in ^3H-PGE2 competition ELISA (CRI %) 15R-Pinane TXA2,[1]; 15R-Pinane TXA2,0.00043%
same,PG Selectivity in ^3H-PGE2 competition ELISA (CRI %) 19R-hydroxy PGE2,[1]; 19R-hydroxy PGE2,0.09%
same,PG Selectivity in ^3H-PGE2 competition ELISA (CRI %) Arachidonic acid,[1]; Arachidonic acid,<0.01%
same,PG Selectivity in ^3H-PGE2 competition ELISA (CRI %) Carbaprostacyclin,[1]; Carbaprostacyclin,0.18%
same,PG Selectivity in ^3H-PGE2 competition ELISA (CRI %) Carbocyclic TXA2,[1]; Carbocyclic TXA2,0.0005%
same,PG Selectivity in ^3H-PGE2 competition ELISA (CRI %) Iloprost,[1]; Iloprost,0.01%
same,PG Selectivity in ^3H-PGE2 competition ELISA (CRI %) LTE4,[1]; LTE4,0.012%
same,PG Selectivity in ^3H-PGE2 competition ELISA (CRI %) PGA2,[1]; PGA2,0.04%
same,PG Selectivity in ^3H-PGE2 competition ELISA (CRI %) PGB2,[1]; PGB2,0.00038%
same,PG Selectivity in ^3H-PGE2 competition ELISA (CRI %) PGD2,[1]; PGD2,<1 × 10^−4%
same,PG Selectivity in ^3H-PGE2 competition ELISA (CRI %) PGE1,[1]; PGE1,3.6%
same,PG Selectivity in ^3H-PGE2 competition ELISA (CRI %) PGE2,[1]; PGE2,100%
same,PG Selectivity in ^3H-PGE2 competition ELISA (CRI %) PGF2α,[1]; PGF2α,0.05%
same,PG Selectivity in ^3H-PGE2 competition ELISA (CRI %) PGI2,[1]; PGI2,0.16%
same,PG Selectivity in ^3H-PGE2 competition ELISA (CRI %) Pinane TXA2,[1]; Pinane TXA2,0.00033%
same,PG Selectivity in ^3H-PGE2 competition ELISA (CRI %) TXB2,[1]; TXB2,<0.01%
same,Cmax,[2]; [3],37000 to 49000 ng/mL
same,bioavailability,[2]; [3],65.8-72.0%
same,half-life,[2]; [3],13.8 to 16.1 days
same,AUC0-∞,"[2]; mouse, female, IP 4 mg/kg",16100 µg·h/mL
same,Cmax,"[2]; mouse, female, IP 4 mg/kg",49400 ng/mL
same,F (%),"[2]; mouse, female, IP 4 mg/kg",65.8%
same,MRT,"[2]; mouse, female, IP 4 mg/kg",19.3 days
same,Tmax,"[2]; mouse, female, IP 4 mg/kg",1 days
same,T½,"[2]; mouse, female, IP 4 mg/kg",13.8 days
same,AUC0-∞,"[2]; mouse, female, IV 4 mg/kg",24500 µg·h/mL
same,CL,"[2]; mouse, female, IV 4 mg/kg",3.84 mL/day/kg
same,MRT,"[2]; mouse, female, IV 4 mg/kg",22.8 days
same,T½,"[2]; mouse, female, IV 4 mg/kg",16.2 days
same,Vss,"[2]; mouse, female, IV 4 mg/kg",0.089 L/kg
same,Vz,"[2]; mouse, female, IV 4 mg/kg",0.092 L/kg
same,AUC0-∞,"[2]; mouse, male, IP 4 mg/kg",19400 µg·h/mL
same,Cmax,"[2]; mouse, male, IP 4 mg/kg",37300 ng/mL
same,F (%),"[2]; mouse, male, IP 4 mg/kg",72%
same,MRT,"[2]; mouse, male, IP 4 mg/kg",23.4 days
same,Tmax,"[2]; mouse, male, IP 4 mg/kg",2 days
same,T½,"[2]; mouse, male, IP 4 mg/kg",16.1 days
same,AUC0-∞,"[2]; mouse, male, IV 4 mg/kg",26900 µg·h/mL
same,CL,"[2]; mouse, male, IV 4 mg/kg",3.6 mL/day/kg
same,MRT,"[2]; mouse, male, IV 4 mg/kg",37.5 days
same,T½,"[2]; mouse, male, IV 4 mg/kg",26.3 days
same,Vss,"[2]; mouse, male, IV 4 mg/kg",0.134 L/kg
same,Vz,"[2]; mouse, male, IV 4 mg/kg",0.135 L/kg
